Assay results taken from US5780025A, “Compositions and methods for the synthesis and assay of enkephalinase” (Genentech, Inc., priority 1993, dated 1998).

T1: dansyl-Gly-Trp-Gly or dansyl-Gly-Tyr-Gly (Rattus norvegicus, UniProt P07861)
T1 construct: made in house; host or cells: human embryonic kidney (293) cells (pCISrENK); also rabbit reticulocyte lysate in vitro translation (prENKsense)
T1 sequence (P07861 1-750): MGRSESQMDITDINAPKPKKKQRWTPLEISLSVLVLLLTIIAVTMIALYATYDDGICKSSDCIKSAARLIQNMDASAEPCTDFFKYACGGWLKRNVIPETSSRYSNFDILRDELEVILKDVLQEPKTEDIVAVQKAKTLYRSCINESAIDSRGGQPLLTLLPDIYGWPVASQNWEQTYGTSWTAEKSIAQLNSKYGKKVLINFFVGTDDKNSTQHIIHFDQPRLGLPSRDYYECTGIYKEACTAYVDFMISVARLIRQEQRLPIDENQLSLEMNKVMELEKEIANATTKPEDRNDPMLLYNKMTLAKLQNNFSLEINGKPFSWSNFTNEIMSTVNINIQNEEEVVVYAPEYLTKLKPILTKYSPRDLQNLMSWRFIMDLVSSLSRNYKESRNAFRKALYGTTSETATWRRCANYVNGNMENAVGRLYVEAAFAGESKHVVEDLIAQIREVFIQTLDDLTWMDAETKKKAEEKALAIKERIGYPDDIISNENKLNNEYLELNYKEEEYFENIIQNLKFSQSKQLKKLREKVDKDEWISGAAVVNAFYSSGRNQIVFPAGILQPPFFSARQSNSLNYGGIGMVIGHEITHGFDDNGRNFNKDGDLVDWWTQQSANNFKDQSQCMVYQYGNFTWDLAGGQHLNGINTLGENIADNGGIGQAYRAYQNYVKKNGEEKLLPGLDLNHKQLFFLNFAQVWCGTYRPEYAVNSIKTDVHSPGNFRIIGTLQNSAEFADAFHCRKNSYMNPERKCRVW

T2: ^3 H-(DAla^2, Leu^5)enkephalin (Rattus norvegicus, UniProt P07861)
T2 construct: Rat kidney enkephalinase was purified to apparent homogeneity; from tissue; host or cells: rat kidney (male rats, membrane fraction, Triton X-100 solubilised)
T2 sequence (P07861 1-750): T1 sequence (P07861 1-750)

B1: prENKsense: in vitro transcription/translation product of plasmid prENKsense (full length rat enkephalinase cDNA), rabbit reticulocyte lysate (protein, UniProt P07861 1-750, looked up)
chain: T1 sequence (P07861 1-750)
modifications: full-length in vitro translated
notes: in vitro transcription/translation product of plasmid prENKsense (full length rat enkephalinase cDNA), rabbit reticulocyte lysate
B2: rat kidney enkephalinase: enkephalinase purified from rat kidney, fractions from the last Concanavalin-A step, about 90 Kdalton protein (protein, UniProt P07861 2-750, looked up)
Neprilysin: GRSESQMDITDINAPKPKKKQRWTPLEISLSVLVLLLTIIAVTMIALYATYDDGICKSSDCIKSAARLIQNMDASAEPCTDFFKYACGGWLKRNVIPETSSRYSNFDILRDELEVILKDVLQEPKTEDIVAVQKAKTLYRSCINESAIDSRGGQPLLTLLPDIYGWPVASQNWEQTYGTSWTAEKSIAQLNSKYGKKVLINFFVGTDDKNSTQHIIHFDQPRLGLPSRDYYECTGIYKEACTAYVDFMISVARLIRQEQRLPIDENQLSLEMNKVMELEKEIANATTKPEDRNDPMLLYNKMTLAKLQNNFSLEINGKPFSWSNFTNEIMSTVNINIQNEEEVVVYAPEYLTKLKPILTKYSPRDLQNLMSWRFIMDLVSSLSRNYKESRNAFRKALYGTTSETATWRRCANYVNGNMENAVGRLYVEAAFAGESKHVVEDLIAQIREVFIQTLDDLTWMDAETKKKAEEKALAIKERIGYPDDIISNENKLNNEYLELNYKEEEYFENIIQNLKFSQSKQLKKLREKVDKDEWISGAAVVNAFYSSGRNQIVFPAGILQPPFFSARQSNSLNYGGIGMVIGHEITHGFDDNGRNFNKDGDLVDWWTQQSANNFKDQSQCMVYQYGNFTWDLAGGQHLNGINTLGENIADNGGIGQAYRAYQNYVKKNGEEKLLPGLDLNHKQLFFLNFAQVWCGTYRPEYAVNSIKTDVHSPGNFRIIGTLQNSAEFADAFHCRKNSYMNPERKCRVW
B3: pCISrENK: rat enkephalinase expressed from plasmid pCISrENK in human embryonic kidney (293) cells and purified (protein, UniProt P07861 2-750, looked up)
Neprilysin: B2 Neprilysin
modifications: recombinant, expressed in 293 cells
notes: rat enkephalinase expressed from plasmid pCISrENK in human embryonic kidney (293) cells and purified
B4: Enkephalinase: Enkephalinase produced by the method of the instant invention, essentially pure (protein, UniProt P07861 2-750, looked up)
Neprilysin: B2 Neprilysin

Experiments:
[1] = target: T1, dansyl-Gly-Trp-Gly or dansyl-Gly-Tyr-Gly; experiment: Enkephalinase activity of expressed rat enkephalinase material; type: biochemical; conditions: rat enkephalinase cDNA expression products
Excerpt: An assay using novel fluorescent substrates for enkephalinase was developed to assess whether enkephalinase is expressed. This assay is based on the disappearance of energy transfer between a tryptophan or a tyrosine residue and the 5-dimethylaminonaphthalene-1-sulfonyl group (dansyl) in the substrates dansyl-Gly-Trp-Gly or dansyl-Gly-Tyr-Gly upon hydrolysis of their Gly-Trp or Gly-Tyr amide bond by enkephalinase. No significant difference in Km or kcat values were found for dansyl-Gly-Trp-Gly and dansyl-Gly-Tyr-Gly as the active site of enkephalinase appears to accommodate tryptophan residues similarly to tyrosine. The tryptophan and tyrosine containing substrates can be used for continuous recording of enkephalinase activity. […]
Fluorescence measurements were made using a Perkin Elmer, model 650-10S spectrofluorometer, equipped with a temperature controlled cell-holder, maintained at 37° C. […] The 600 μl mixture was transferred into a quartz cuvette, and fluorescence measured. […] The fluorescence in the incubation media could thus be related to the amounts of hydrolyzed substrates. […] Ten μl of purified rat kidney enkephalinase was added and the increase in tryptophan or tyrosine fluorescence was continuously monitored (excitation=280 nm, emission=360 nm for tryptophan, excitation 277, emission 315 for tyrosine). […] Under these conditions, tryptophan fluorescence was stable for over 2 hr.

[2] = target: T2, ^3 H-(DAla^2, Leu^5)enkephalin; experiment: Assay of enkephalinase activity with tritiated enkephalin substrate (Llorens et al. 1982); type: biochemical
Excerpt: As used herein, enkephalinase or enkephalinase derivatives refers to proteins which are enzymatically active or are immunologically cross-reactive with enzymatically active enkephalinase. Enzymatically functional enkephalinase is capable of cleaving the Gly^3 -Phe^4 amide bond of ^3 H-(DAla^2, Leu^5)enkephalin in an assay as described by Llorens et al. (1982).
"Essentially free from" or "essentially pure" when used to describe the state of enkephalinase produced by the invention means free of protein or other materials normally associated with enkephalinase in its in vivo physiological milieu as for example when enkephalinase is obtained from blood and/or tissues by extraction and purification.
Enkephalinase activity was measured as described by Llorens et al. (1982) using ^3 H-(DAla^2, Leu^5)enkephalin as a substrate. […]

Row | Molecule | enkephalinase activity of expressed material [1] | further results
1 | B1 | did not have detectable activity | –
2 | B2 | – | enkephalinase activity, specific activity ([2]; six 1 ml fractions from the last Concanavalin-A step, measured at 25° C., ^3 H-(DAla^2, Leu^5)enkephalin as substrate): 27.4 nmole/mg protein/min
3 | B3 | biologically active | –
4 | B4 | – | specific activity ([2]; 20 nM ^3 H-(DAla^2, Leu^5)enkephalin as substrate, 25° C., 50 mM pH 7.4 HEPES buffer containing 0.02% Tween 20): at least 25 nmole/mg protein/min
